B1: TPR t1 (parent)
chain: GACCAAUCUGCCCUCAGAGCUCGAGAACAUCUUCGGAUGCAGAGGAGGCAGGCUUCGGUGGCGCGAUAGCGCCAACGUCCUCAACCUCCAAUGCAUCCCACCACAUGAUGAUGCCUGAAGAGCCUUGGUUUUUUG

Consider 83 variants from the RNAGym collection of RNA variant scans (doi:10.1073/pnas.2313332121).

In this data set the parent is B1. As to the kind of experiment: polymerase ribozyme fitness, log enrichment relative to wild type (log ratio); higher = more active; in vitro selection for triplet polymerase activity. In a few lines: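 Mutant libraries of each subunit of a heterodimeric triplet polymerase ribozyme were built by PCR and transcribed. Each library went through one round of in vitro selection in triplicate: annealing with biotinylated primer, partner subunit and triplets, frozen incubation at −7 °C, gel excision of extended constructs, streptavidin-bead capture and RT-PCR. Input and output libraries were Illumina-sequenced; only genotypes with ≥10 input reads and ≥1 read per output were kept. Fitness is log2(genotype enrichment/wild-type enrichment), using inverse-variance-weighted replicate averages.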
Consider G48A G117A, for which the “polymerase ribozyme fitness (log ratio)” value is -2.44.

In the case of G48A G71A C102A, the “polymerase ribozyme fitness (log ratio)” value is -3.85.

With G48U U59A G120U, the “polymerase ribozyme fitness (log ratio)” value is -0.541.

For the variant G48U C114G G122A C123G, the “polymerase ribozyme fitness (log ratio)” value is -3.44.

As to C49A C62A G71U G117A U130C, the “polymerase ribozyme fitness (log ratio)” value is -1.49.

C49A G60U: the “polymerase ribozyme fitness (log ratio)” value turned out to be 0.254.

For the variant C49A G60A, the “polymerase ribozyme fitness (log ratio)” value was -0.214.

In the case of G48A G93C C114A, the “polymerase ribozyme fitness (log ratio)” value is -2.27.

On to G48U C123U, for which the “polymerase ribozyme fitness (log ratio)” value amounted to 0.57.

G48C G52C: the “polymerase ribozyme fitness (log ratio)” value was -2.25.

Regarding G48U A91U C104A, the “polymerase ribozyme fitness (log ratio)” value is -5.89.

For G48U C49U C73G G120U, the “polymerase ribozyme fitness (log ratio)” value turned out to be 0.0945.

In the case of C49A C53U G61A C101A, the “polymerase ribozyme fitness (log ratio)” value was -0.913.

As for G48C C56U C73G, the “polymerase ribozyme fitness (log ratio)” value is -1.95.

As for G48A G63U G113A, the “polymerase ribozyme fitness (log ratio)” value was -2.17.

For the variant G48C A50G C53U C73G, the “polymerase ribozyme fitness (log ratio)” value was -1.36.

As to G48A U78A C98U, the “polymerase ribozyme fitness (log ratio)” value was -1.75.

Take G48U G52U A90G A91U C114U: the “polymerase ribozyme fitness (log ratio)” value is -2.83.

G48A C86G A118C: the “polymerase ribozyme fitness (log ratio)” value is -3.12.

On to C49A A83U, for which the “polymerase ribozyme fitness (log ratio)” value was -0.343.

With G48A G63U C88U, the “polymerase ribozyme fitness (log ratio)” value was -1.66.

For G48A U54G G71U C85U, the “polymerase ribozyme fitness (log ratio)” value is -4.47.

On to G48U G65U, for which the “polymerase ribozyme fitness (log ratio)” value was -6.34.

For G48C C76U C88U, the “polymerase ribozyme fitness (log ratio)” value is -1.76.

Consider G48C G110C U116G A119G C123A, for which the “polymerase ribozyme fitness (log ratio)” value is -5.26.

Take C49A C88A G127U: the “polymerase ribozyme fitness (log ratio)” value is -2.42.

With G48U G135U, the “polymerase ribozyme fitness (log ratio)” value was -2.2.

Regarding G48U G135C, the “polymerase ribozyme fitness (log ratio)” value is -1.03.

For the variant G48U G93A G120A, the “polymerase ribozyme fitness (log ratio)” value is -0.388.

In the case of C49A C89U U92C A95G U96A G113A U133A, the “polymerase ribozyme fitness (log ratio)” value was -3.76.

G48A C72U A119U: the “polymerase ribozyme fitness (log ratio)” value was -0.826.

With C49A C104G, the “polymerase ribozyme fitness (log ratio)” value was -6.42.

In the case of G48U A90U, the “polymerase ribozyme fitness (log ratio)” value is -1.38.

As for G48U G60A C85G, the “polymerase ribozyme fitness (log ratio)” value was -0.64.

Consider G48U C73G G110U G120U, for which the “polymerase ribozyme fitness (log ratio)” value was -4.95.

Take G48C G63A G113A U126C: the “polymerase ribozyme fitness (log ratio)” value is -3.69.

For G48A U112C, the “polymerase ribozyme fitness (log ratio)” value amounted to 0.294.

Regarding G48A U112A, the “polymerase ribozyme fitness (log ratio)” value came to 0.917.

In the case of C49A C56U C123A, the “polymerase ribozyme fitness (log ratio)” value stood at 0.705.

Take G48U U87A: the “polymerase ribozyme fitness (log ratio)” value was -1.44.

Regarding C49A A50C C86U, the “polymerase ribozyme fitness (log ratio)” value is -0.434.

With C49A C70A C97A G120U U130G, the “polymerase ribozyme fitness (log ratio)” value was -6.14.

In the case of G48C G120A, the “polymerase ribozyme fitness (log ratio)” value was -0.738.

Regarding G48A G69C C79U U92G U116C G120C, the “polymerase ribozyme fitness (log ratio)” value is -7.13.

Take C49A C73G U106G U130C: the “polymerase ribozyme fitness (log ratio)” value is -2.23.

With G48C G113U C123A, the “polymerase ribozyme fitness (log ratio)” value is -4.5.

In the case of G48A G93A C114G, the “polymerase ribozyme fitness (log ratio)” value was -3.84.

On to G48A C62A U81A, for which the “polymerase ribozyme fitness (log ratio)” value is -3.27.

Turning to G48U G69C C86G G113U, the “polymerase ribozyme fitness (log ratio)” value was -6.36.

As to G48C C53A C79G C99A C124A, the “polymerase ribozyme fitness (log ratio)” value is -7.85.

With G48C G57A G63A G93U G127A, the “polymerase ribozyme fitness (log ratio)” value was -4.97.

On to G48A G63U A84G G128U, for which the “polymerase ribozyme fitness (log ratio)” value is -3.63.

For the variant G48U A83G C97U C104A G120A, the “polymerase ribozyme fitness (log ratio)” value is -3.43.

Regarding G48A G63C U132A, the “polymerase ribozyme fitness (log ratio)” value is -1.12.

On to G48A G61A A103C C104U, for which the “polymerase ribozyme fitness (log ratio)” value is -5.34.

With G48A C85G C115U, the “polymerase ribozyme fitness (log ratio)” value is -2.75.

Regarding G48A C62A G69U, the “polymerase ribozyme fitness (log ratio)” value was -5.25.

As to G48U A50G U92C A108G, the “polymerase ribozyme fitness (log ratio)” value was -5.83.

Consider G48U C79U, for which the “polymerase ribozyme fitness (log ratio)” value is -2.53.

Regarding C49A C70A, the “polymerase ribozyme fitness (log ratio)” value is -1.29.

In the case of C49A C70G, the “polymerase ribozyme fitness (log ratio)” value is -4.31.

For C49A C72A A83C C101A A121U, the “polymerase ribozyme fitness (log ratio)” value amounted to 0.741.

In the case of G48U U106C G117C, the “polymerase ribozyme fitness (log ratio)” value is -5.18.

Take C49A A68U G69C U112C U130A: the “polymerase ribozyme fitness (log ratio)” value was -4.19.

G48U U130C U133A: the “polymerase ribozyme fitness (log ratio)” value was -0.9.

Take G48C C49A A50G G52C C53U C86G C94U C114A: the “polymerase ribozyme fitness (log ratio)” value is -3.63.

Take G48C C56G C101U U125G: the “polymerase ribozyme fitness (log ratio)” value was -1.87.

With C49A C79A A119G, the “polymerase ribozyme fitness (log ratio)” value was -2.87.

Take G48A U131A: the “polymerase ribozyme fitness (log ratio)” value is -0.843.

As for C49A A50C G117U, the “polymerase ribozyme fitness (log ratio)” value is -3.66.

As for G48A C79U U92G U116C G120C, the “polymerase ribozyme fitness (log ratio)” value was -5.27.

For G48U G71U C114U, the “polymerase ribozyme fitness (log ratio)” value is -3.21.

Regarding G48C C49G C82U C124A G127C U133C G135U, the “polymerase ribozyme fitness (log ratio)” value was -0.601.

Turning to C49A G58A, the “polymerase ribozyme fitness (log ratio)” value was -0.0101.

With G48U C53G C62U C73A U132A, the “polymerase ribozyme fitness (log ratio)” value was -0.636.

In the case of G48U C49A C73A C115U U133C, the “polymerase ribozyme fitness (log ratio)” value is -1.19.

As to G48U U59A G69C U116C C124U, the “polymerase ribozyme fitness (log ratio)” value was -2.23.

With G48U C85G C89U, the “polymerase ribozyme fitness (log ratio)” value is -0.48.

Turning to G48C C101U U109G, the “polymerase ribozyme fitness (log ratio)” value was -5.98.

With G48U U87G A90U, the “polymerase ribozyme fitness (log ratio)” value was -1.49.

In the case of C49A C123G, the “polymerase ribozyme fitness (log ratio)” value was 0.461.

For C49A C123A, the “polymerase ribozyme fitness (log ratio)” value came to 0.189.

Consider G48U C89G, for which the “polymerase ribozyme fitness (log ratio)” value is -1.92.
